The numbers were not newly measured in paper PMC11996608, which cites them from elsewhere.

The series addresses core RNA polymerase (Escherichia coli) (UniProt P0A7Z4).

RapA, sequence (P60240 2-968): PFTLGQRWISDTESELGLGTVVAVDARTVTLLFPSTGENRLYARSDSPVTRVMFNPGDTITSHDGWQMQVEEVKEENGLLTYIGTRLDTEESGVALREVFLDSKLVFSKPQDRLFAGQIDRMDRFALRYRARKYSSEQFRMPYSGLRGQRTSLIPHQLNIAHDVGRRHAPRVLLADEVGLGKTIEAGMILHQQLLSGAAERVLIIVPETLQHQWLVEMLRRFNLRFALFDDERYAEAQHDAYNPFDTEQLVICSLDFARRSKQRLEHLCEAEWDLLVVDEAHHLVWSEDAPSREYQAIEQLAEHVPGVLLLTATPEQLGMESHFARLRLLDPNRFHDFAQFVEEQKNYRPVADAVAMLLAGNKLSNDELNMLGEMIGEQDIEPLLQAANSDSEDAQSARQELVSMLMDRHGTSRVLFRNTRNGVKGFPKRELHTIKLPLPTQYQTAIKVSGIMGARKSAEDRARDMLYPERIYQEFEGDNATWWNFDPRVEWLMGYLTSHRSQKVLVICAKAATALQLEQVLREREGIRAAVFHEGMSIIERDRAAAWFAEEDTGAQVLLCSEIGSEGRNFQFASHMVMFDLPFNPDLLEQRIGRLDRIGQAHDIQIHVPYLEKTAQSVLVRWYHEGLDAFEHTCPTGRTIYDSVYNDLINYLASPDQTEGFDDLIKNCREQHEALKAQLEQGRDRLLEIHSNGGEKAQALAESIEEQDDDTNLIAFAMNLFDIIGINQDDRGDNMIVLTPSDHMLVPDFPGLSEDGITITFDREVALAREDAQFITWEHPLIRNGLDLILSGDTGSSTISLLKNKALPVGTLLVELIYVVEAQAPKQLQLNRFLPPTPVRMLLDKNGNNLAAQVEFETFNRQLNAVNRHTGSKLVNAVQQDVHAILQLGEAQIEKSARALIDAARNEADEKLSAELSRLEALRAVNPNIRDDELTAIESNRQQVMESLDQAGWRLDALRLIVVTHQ

Turning to RapA (from UniProt P60240), the Kd is 7.5 nM.
